The record followed here is FireProtDB (doi:10.1021/bi060907v).

In general, Tm refers to the temperature at which the thermal transition is half complete.

B1: Ribonuclease HII, O74035 (parent)
chain: MKIAGIDEAGRGPVIGPMVIAAVVVDENSLPKLEELKVRDSKKLTPKRREKLFNEILGVLDDYVILELPPDVIGSREGTLNEFEVENFAKALNSLKVKPDVIYADAADVDEERFARELGERLNFEAEVVAKHKADDIFPVVSAASILAKVTRDRAVEKLKEEYGEIGSGYPSDPRTRAFLENYYREHGEFPPIVRKGWKTLKKIAEKVESEKKAEERQATLDRYFRKV

This data set covers variants of B1. Particulars: Thermococcus kodakarensis (strain ATCC BAA-918 / JCM 12380 / KOD1), pH 9, reversible: Yes, structure 1IO2, whole UniProt chain shown; for ddG of mutation (higher = less stable) / denaturant m value / denaturant midpoint (higher = more stable): 50 °C, GdnHCl, CD, Tris-HCl 20 mM; for Tm / change of melting temperature, mutant - wild type (higher = more stable) / unfolding enthalpy (calorimetric) / unfolding enthalpy (van 't Hoff): Thermal, DSC, Gly-NaOH 20 mM.

Regarding E8A, the “ddG of mutation (higher = less stable)” value is -2.65 kcal/mol, the denaturant m value was 4.73 kcal/mol/M, the “denaturant midpoint (higher = more stable)” value (shortened to “denaturant midpoint”) is 2.39 M and the Tm turned out to be 93.2 °C. Further, the “change of melting temperature, mutant - wild type (higher = more stable)” value (shortened to “change of melting temperature, mutant”) worked out at 8 °C; the “unfolding enthalpy (calorimetric)” value was determined as 171 kcal/mol; the “unfolding enthalpy (van 't Hoff)” value worked out at 150 kcal/mol.
As for E8Q, the “ddG of mutation (higher = less stable)” value is -0.6 kcal/mol, the denaturant m value turned out to be 3.73 kcal/mol/M, the “denaturant midpoint” value is 1.97 M and the Tm amounted to 85.9 °C. Further, the “change of melting temperature, mutant” value came out at 0.6 °C; the “unfolding enthalpy (calorimetric)” value worked out at 158 kcal/mol; the “unfolding enthalpy (van 't Hoff)” value was 163 kcal/mol.
Consider D105A, for which the “ddG of mutation (higher = less stable)” value is -1.58 kcal/mol, the denaturant m value worked out at 5.66 kcal/mol/M, the “denaturant midpoint” value was found to be 2.17 M and the Tm worked out at 89.4 °C. Also, the “change of melting temperature, mutant” value was 4.2 °C; the “unfolding enthalpy (calorimetric)” value is 170 kcal/mol; the “unfolding enthalpy (van 't Hoff)” value was found to be 162 kcal/mol.
Regarding D135A, the “ddG of mutation (higher = less stable)” value was -2.56 kcal/mol, the denaturant m value was 4.85 kcal/mol/M, the “denaturant midpoint” value was determined as 2.37 M and the Tm was determined as 90.4 °C. Besides, the “change of melting temperature, mutant” value was found to be 5.2 °C; the “unfolding enthalpy (calorimetric)” value was found to be 147 kcal/mol; the “unfolding enthalpy (van 't Hoff)” value was determined as 153 kcal/mol.
On to D7N, for which the “ddG of mutation (higher = less stable)” value was -1.67 kcal/mol, the denaturant m value amounted to 4.45 kcal/mol/M, the “denaturant midpoint” value stood at 2.18 M and the Tm is 88.3 °C. The “change of melting temperature, mutant” value is 3.1 °C; the “unfolding enthalpy (calorimetric)” value stood at 137 kcal/mol; the “unfolding enthalpy (van 't Hoff)” value turned out to be 163 kcal/mol.
